Assay results published in article PMC6565748, “Environmental pH and peptide signaling control virulence of Streptococcus pyogenes via a quorum-sensing pathway” (Nature Communications, 2019).
Where a SMILES comes first, the peptide text is derived from it. Where no end group is shown, it is not given here. The star is where a group is joined. FITC = O=C1OC2(c3ccc(O)cc3Oc3cc(O)ccc32)c2ccc(NC(=S)*)cc21

How the values were obtained:
SpeBM = experiment: SpeB protease activity assay with SpeBZ-C192S zymogen as substrate; assay type: biochemical, Streptococcus pyogenes; details: SDS-PAGE; 0.25 mg/ml C192S zymogen, 0.1 µg mature SpeB, different buffer pH
Procedure: Purified C192S was added to a final concentration of 0.25 mg/ml in reaction mixture containing 0.1 µg of mature SpeB in different buffer pH conditions. Aliquots were collected at indicated time points and reaction was stopped by adding SDS gel-loading buffer. Proteolytic processing of C192S zymogen into mature form was visualized by SDS-PAGE.

RopB = biological target: T1, RopB (Streptococcus pyogenes, UniProt Q9FB04); experiment: Fluorescence polarization (FP) assay of RopB binding to fluoresceinated SIP peptides; details: Fig. 3c; compared to SIP (SIP-WT)
T1 sequence (Q9FB04 1-280): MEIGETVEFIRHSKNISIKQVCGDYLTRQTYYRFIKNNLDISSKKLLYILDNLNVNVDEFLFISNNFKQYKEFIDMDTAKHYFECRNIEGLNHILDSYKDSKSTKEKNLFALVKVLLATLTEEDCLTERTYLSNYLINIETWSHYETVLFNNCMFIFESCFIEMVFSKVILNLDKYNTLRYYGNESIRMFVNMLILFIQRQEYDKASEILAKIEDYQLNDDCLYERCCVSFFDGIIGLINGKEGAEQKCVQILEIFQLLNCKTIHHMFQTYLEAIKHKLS
Procedure: The coding regions of the full-length and C-terminal domain (RopB–CTD) (amino acids 56–280) of ropB gene of strain MGAS10870 were cloned into plasmids pET-28a and pET-21b, respectively. Protein was overexpressed in E. coli strain BL21 (DE3). Protein overexpression and purification for both full-length RopB and RopB–CTD were carried out as described previously[37],[68]. The proteins were purified to >95% homogeneity and concentrated to a final concentration of ~ 20 mg/ml.
(§1) Fluorescence polarization-based RopB-ligand binding experiments were performed with a Biotek microplate reader (Biotek) using the […] fluorescence of fluorescein labeled DNA or synthetic peptides. The polarization (P) of the labeled DNA or synthetic peptides increases as a function of protein binding, and equilibrium dissociation constants were determined from plots of millipolarization (P × 10^–3) against protein concentration. For RopB–DNA-binding studies, 1 nM 5′-fluoresceinated oligoduplex in binding buffer (20 mM Tris–HCl pH 8.5, 200 mM NaCl, 1 mM TCEP and 25% DMSO) was titrated against increasing concentrations of purified RopB and the resulting change in polarization measured. Samples were excited at 490 nm and emission measured at 530 nm. […]

[1] = tested on: speB expression in SIP* mutant strain; experiment: Synthetic peptide addition assay, speB transcript level by qRT-PCR in SIP* mutant strain; assay type: cell-based, Streptococcus pyogenes
Procedure: Synthetic peptides of high purity (>90% purity) obtained from Peptide 2.0 (Chantilly, VA) were suspended in 100% DMSO to prepare a 10 mM stock solution. Stock solutions were aliquoted and stored at −20 °C until use. Working stocks were prepared by diluting the stock solution in 25% DMSO.
GAS strains were grown to the indicated A600 and incubated with two volumes of RNAprotect (Qiagen) for 10 min at room temperature. RNA isolation and purification were performed with an RNeasy kit (Qiagen). After quality control analysis, cDNA was synthesized from the purified RNA using Superscript III (Invitrogen) and Taqman qRT-PCR was performed with an ABI 7500 Fast System (Applied Biosystems). Comparison of transcript levels was performed by the ∆CT method of analysis using tufA as the endogenous control gene[5],[78]. The primers and probes used for qRT-PCR are listed in Supplementary Table 2.

[2] = tested on: RopB–speB promoter interactions; experiment: FP assay of RopB–DNA binding in presence of SIP peptides; design: species or system Streptococcus pyogenes; details: fluoresceinated oligoduplexes with RopB binding sites from speB promoter, RopB complexed with SIP peptide (Supplementary Fig. 8c, d)
Procedure: as §1, with “nm. The RopB-peptide-binding studies were performed in a peptide-binding buffer composed of 20 mM potassium phosphate pH 6.0, 75 mM Nacl, 2% DMSO, 1 mM EDTA and 0.0005% Tween 20. All data were plotted using KaleidaGraph and the resulting plots were fitted with the equation P = {(Pbound − Pfree)[protein]/(KD + [protein])} + Pfree, where P is the polarization measured at a given protein concentration, Pfree is the initial polarization of the free ligand, Pbound is the maximum polarization of specifically bound ligand and [protein] is the protein concentration. Nonlinear least squares analysis was used to determine Pbound, and Kd.” for “nm.”

[3] = biological target: regulator of proteinase B (RopB), full-length, wild type; experiment: FP assay; details: for Kd: parent: 13 ± 0.3 nM
[4] = biological target: synthetic SIP variant SIP-L6A (Streptococcus pyogenes); experiment: fluorescence polarisation; fluorescein labeled synthetic peptide titrated with purified RopB protein; 20 mM potassium phosphate pH 6.0, 75 mM NaCl, 2% DMSO, 1 mM EDTA, 0.0005% Tween 20
[5] = biological target: synthetic SIP peptide containing fluorescein modification at its amino-terminus (FITC-SIP); experiment: FP assay; details: for Kd: parent: 6.3 ± 0.5 nM
[6] = biological target: T2, regulator of proteinase B (RopB), full-length, wild type (Streptococcus pyogenes (strain …)); experiment: FP; pH 5.5
T2 chain: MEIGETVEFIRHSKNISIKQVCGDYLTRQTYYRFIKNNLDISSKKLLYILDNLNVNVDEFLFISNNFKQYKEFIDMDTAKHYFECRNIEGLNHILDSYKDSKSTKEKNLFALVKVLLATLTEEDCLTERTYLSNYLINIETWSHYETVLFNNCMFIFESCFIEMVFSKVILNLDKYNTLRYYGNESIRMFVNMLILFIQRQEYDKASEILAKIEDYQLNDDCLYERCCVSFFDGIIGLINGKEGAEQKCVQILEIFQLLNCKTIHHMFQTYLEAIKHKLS

[7] = biological target: T2, regulator of proteinase B (RopB), …; experiment: FP; pH 6.0
[8] = biological target: T2, regulator of proteinase B (RopB), …; experiment: FP; pH 6.5
[9] = biological target: T2, regulator of proteinase B (RopB), …; experiment: FP; pH 7.0
[10] = biological target: T2, regulator of proteinase B (RopB), …; experiment: FP; pH 7.5
[11] = biological target: T2, regulator of proteinase B (RopB), …; experiment: FP; pH 8.0
[12] = biological target: T2, regulator of proteinase B (RopB), …; experiment: FP; pH 8.5
[13] = biological target: T2, regulator of proteinase B (RopB), …; experiment: FP; pH 9.0

Which “Proteolytic cleavage of SpeBZ-C192S by SpeBM” value (SpeBM) does the source give for `CC(C)C[C@H](NC(=O)[C@H]1O[C@@H]1C(=O)O)C(=O)NCCCCN=C(N)N` [E64] here?
The value was “inhibited”.

With `CSCC[C@H](N)C(=O)N[C@@H](Cc1c[nH]c2ccccc12)C(=O)N[C@@H](CC(C)C)C(=O)N[C@@H](CC(C)C)C(=O)N[C@@H](CC(C)C)C(=O)N[C@@H](C)C(=O)N[C@@H](Cc1ccccc1)C(=O)N[C@@H](CC(C)C)C(=O)O` [SIP-L6A] (H-MWLLLAFL-OH; N-terminus and C-terminus assumed) as the molecule, how does the “Fold change reduction in Kd” value (RopB) read?
Its value is ~ 2.7.

And the “Ability to activate RopB-dependent speB expression” value ([1]; SIP addition assay, SIP* mutant strain, reference DMSO-supplemented strain (Fig. 3d))?
Its value is “partial activity”.

What about the “Effect on RopB–promoter (operator sequence) interactions” value [2] of the same molecule?
The value was “WT-like binding to operator sequences”.

Which “SIP-dependent speB expression (speB transcript level)” value ([1]; SIP* mutant strain at A600 ~1.7, THY broth adjusted to different pH, synthetic SIP, 1 h, relative to unsupplemented strain) does the source give for `CSCC[C@H](N)C(=O)N[C@@H](Cc1c[nH]c2ccccc12)C(=O)N[C@@H](CC(C)C)C(=O)N[C@@H](CC(C)C)C(=O)N[C@@H](CC(C)C)C(=O)N[C@@H](CC(C)C)C(=O)N[C@@H](Cc1ccccc1)C(=O)N[C@@H](CC(C)C)C(=O)O` [SIP] (H-MWLLLLFL-OH; N-terminus and C-terminus assumed) here?
The value was “maximal within a very narrow pH range (pH 5.5–6.0)”.

What about the “Ability to induce speB expression” value ([1]; SIP* mutant strain, THY pH 8, SIP added even at 100-fold excess, 1 h) of the same molecule?
Its value is “lost the ability to induce speB expression”.

Which ratio to parent [3] does the source give for “SpeB-inducing peptide (SIP), synthetic, unmodified F7A” here?
Its ratio to parent is 11.

What about the Kd [3] of the same molecule?
The Kd was 142 nM.

With “SpeB-inducing peptide (SIP), synthetic, unmodified L3A” as the molecule, how does the ratio to parent [3] read?
The ratio to parent was 41.

And the Kd [3]?
The Kd was 534 nM.

“SpeB-inducing peptide (SIP), synthetic, unmodified L4A” was tested. Which ratio to parent [3] did it give?
Its ratio to parent is 27.

And the Kd [3]?
The Kd was 358 nM.

For “SpeB-inducing peptide (SIP), synthetic, unmodified L5A”, which ratio to parent [3] is on record?
The ratio to parent was 48.

And the Kd [3]?
Its Kd is 625 nM.

With “SpeB-inducing peptide (SIP), synthetic, unmodified L6A” as the molecule, how does the Kd [3] read?
Its Kd is 36 nM.

Which results are given for “SpeB-inducing peptide (SIP), synthetic, unmodified L8A”?
ratio to parent [3]: 8; Kd [3]: 106 nM

What does the source list for “SpeB-inducing peptide (SIP), synthetic, unmodified M1A”?
ratio to parent [3]: 20; Kd [3]: 259 nM

For “SpeB-inducing peptide (SIP), synthetic, unmodified W2A”, which ratio to parent [3] is on record?
The ratio to parent was 44.

And the Kd [3]?
The Kd was 570 nM.

How did the fold reduction in binding affinity compared to SIP [4] turn out when “regulator of proteinase B (RopB), full-length, wild type (receptor)” was run?
Its fold reduction in binding affinity compared to SIP is 2.7 fold.

Which ratio to parent [5] does the source give for “regulator of proteinase B (RopB), full-length, wild type F155A” here?
The ratio to parent was 5.

And the Kd [5]?
The Kd was 33 nM.

Which results are given for “regulator of proteinase B (RopB), full-length, wild type M267A”?
ratio to parent [5]: 44; Kd [5]: 283 nM

How did the ratio to parent [5] turn out when “regulator of proteinase B (RopB), full-length, wild type N152A” was run?
Its ratio to parent is 28.

What about the Kd [5] of the same molecule?
The Kd was 243 nM.

“regulator of proteinase B (RopB), full-length, wild type N192A” was tested. Which ratio to parent [5] did it give?
Its ratio to parent is 72.

And the Kd [5]?
Its Kd is 462 nM.

Which ratio to parent [5] does the source give for “regulator of proteinase B (RopB), full-length, wild type R188A” here?
Its ratio to parent is 67.

And the Kd [5]?
Its Kd is 429 nM.

With {FITC}-MWLLLLFL [synthetic SIP peptide containing fluorescein modification at its amino-terminus (FITC-SIP)] as the molecule, how does the Kd [6] read?
Its Kd is 5.4 nM.

And the Kd [7]?
The Kd was 1.8 nM.

What about the Kd [8] of the same molecule?
The Kd was 2.9 nM.

What about the Kd [9] of the same molecule?
The Kd was 11.8 nM.

And the Kd [10]?
Its Kd is 42.1 nM.

What about the Kd [11] of the same molecule?
Its Kd is 78.6 nM.

And the Kd [12]?
The Kd was 222 nM.

What about the Kd [13] of the same molecule?
The Kd was 320 nM.
